± gives the standard deviation.
Test: protein stability index of a GFP-peptide fusion (GPS, HEK-293T) (PSI 1-6); higher = more stable
Details: c terminus: a fixed tail appended
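Also: 24-mer peptide tiles fused after GFP, lentivirally expressed, FACS-sorted into six equal bins by GFP/DsRed ratio, decoded by Illumina sequencing, PSI is the read-weighted mean bin number.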

Row | Sequence | protein stability index (treatment: DMSO) | protein stability index (treatment: MLN4924 1 uM, 8 h)
1 | CSITGDSSRVIAASYDKTVRAWDL [WDR88] | 2.57 ± 0.2 | 2.6 ± 0.2
2 | CTRFTDEYQLYEDIGKGAFSVVRR [CAMK2B] | 2.84 ± 0.35 | 2.85 ± 0.54
3 | DALPGQSKRLAVPCKLEKMRILAH [TLE6] | 2.39 ± 0.18 | 2.4 ± 0.24
4 | DCILRDTSEDLRLQCDAVNLAFGR [TEKT4] | 3.4 ± 0.13 | 3.48 ± 0.19
5 | DDDDNLPQLKKESELPFVPNYLAN [ANKRD40] | 4.77 ± 0.12 | 4.84 ± 0.076
6 | DDEQYAWESSAGGSFTVRADHGEP [HSP90AB1] | 5.14 ± 0.29 | 5.07 ± 0.12
7 | DDISVDSLDFTKKILHTAWHPAEN [PPP2R2C] | 3.12 ± 0.36 | 3.12 ± 0.49
8 | DENGRPYSPSQYALQYAGDGSVLL [NFE2L1] | 3.57 ± 0.39 | 3.6 ± 0.34
9 | DENLFTGEDLDELEEELNTLDLEE [ZC3H15] | 5.18 ± 0.75 | 5.44 ± 0.21
10 | DEQKEEEEEEGEEEELIRIFQEQQ [FAM9B] | 5.51 ± 0.34 | 5.47 ± 0.29
11 | DFFIVGCEVIFCVFIFYYVVEEIL [PKD2L1] | 1.92 ± 0.47 | 2 ± 0.3
12 | DFSSGGAAAAAAPAPPPPAGGATA [SNAP91] | 5.39 ± 0.3 | 5.37 ± 0.15
13 | DGFFYFFHGTRQYKFDPKTKRILT [MMP1] | 2.14 ± 0.48 | 2.28 ± 0.23
14 | DGLLGDNQIMPKAGLLIIVLAIIA [MAGEA3] | 3.11 ± 0.91 | 2.46 ± 0.34
15 | DGLRLLGARARGVAMLGVFLVSAV [SOAT2] | 2.56 ± 0.53 | 2.49 ± 0.38
16 | DGQYLGVAFRGLKGKKLYPVVSAV [SPSB4] | 2.08 ± 0.38 | 2.51 ± 0.49
17 | DINLSVRKLLNRHNIVFGDYTWTE [TRIP13] | 2.28 ± 0.29 | 2.22 ± 0.4
18 | DIRAKKIASIADVCESMKEQLLVL [HNF4A] | 2.5 ± 0.35 | 2.26 ± 0.22
19 | DKNLTEREVFNEIYPVWTYSYLVL [SLC19A2] | 2.81 ± 0.64 | 2.65 ± 0.46
20 | DLENRCQSLTEDLEFRKSMYEEEI [LMNB1] | 4.91 ± 0.056 | 4.76 ± 0.13
21 | DLGASSLHVNGESLEMDSDEDDSE [EHMT1] | 5.52 ± 0.15 | 5.62 ± 0.14
22 | DLIKHQRIHTEEKPYKCQQCDKRF [ZNF75A] | 2.99 ± 0.23 | 3.31 ± 0.16
23 | DLNGAQIKLREYEAALNSKDAALA [LMNB1] | 3.5 ± 0.18 | 3.71 ± 0.39

Row | Sequence | protein stability index (treatment: DMSO) | protein stability index (treatment: MLN4924 1 uM, 8 h)
24 | DLRVLVSNASEDTRRLRLAHVGME [SCARA5] | 2.9 ± 0.17 | 3.15 ± 0.11
25 | DLSGLPLQSSKNSYSFQNPSSFDP [RNF180] | 3.75 ± 0.065 | 3.78 ± 0.074
26 | DLSVEERSFVEKHRWPSNMYLKQL [RHOBTB3] | 3.01 ± 0.24 | 2.98 ± 0.18
27 | DLTVGRAPTADDDDDDHDDHEDND [NOL4L] | 5.56 ± 0.18 | 5.5 ± 0.15
28 | DNLLRSTQKLSHSTKPSGSPLEEK [MATN2] | 5.31 ± 0.37 | 5.07 ± 0.37
29 | DNMYRLAHFSPFLYYQSQELPNGS [PDZK1] | 2.12 ± 0.22 | 2.33 ± 0.23
30 | DNPANRSLVLPWSFPLEWAPQNLT [TOR1AIP2] | 2.87 ± 0.23 | 2.79 ± 0.17
31 | DPKKLLTQHFVQENYLEYRQVPGS [MAGEA3] | 3.62 ± 0.22 | 3.76 ± 0.13
32 | DREDSPERCSDSDEEKKARRGRSP [CLINT1] | 5.59 ± 0.3 | 5.34 ± 0.25
33 | DREGPSSSKLVTKKAPQPAKPRLA [HDAC6] | 5.09 ± 0.3 | 5.06 ± 0.35
34 | DRTSHRLHTANLGDSGFLVVRGGE [PPTC7] | 4.08 ± 0.21 | 4.11 ± 0.27
35 | DSASPVEDTSNDESSILGTDIDLQ [M1AP] | 5.62 ± 0.2 | 5.62 ± 0.21
36 | DSEEDEKMEEDIKEEEEKDHNEAM [PCMTD1] | 5.81 ± 0.082 | 5.64 ± 0.2
37 | DSEHEPVYRAELVGELNGYLRDSS [PWWP2B] | 4.46 ± 0.14 | 4.45 ± 0.16
38 | DSHYGTKGLKKVVHETPAASKTVF [BTBD1] | 4.05 ± 0.095 | 4.14 ± 0.28
39 | DSKIAFLMQLQDIQYLTENIWASQ [IQUB] | 2.9 ± 0.64 | 2.46 ± 0.62
40 | DSNMPHFQTLQAIVSHFQKLFDVP [CEP70] | 2.38 ± 0.1 | 2.47 ± 0.22
41 | DSSHERTESQLTPCIRNVTSPTRQ [BTBD10] | 5.06 ± 0.15 | 5.1 ± 0.12
42 | DVESGQLLQSFHGHGADVLCLDLA [GNB5] | 3.69 ± 0.28 | 3.81 ± 0.31
43 | DVIIEVNGVNVLDEPYEKVVDRIQ [PDZK1] | 3.73 ± 0.32 | 3.81 ± 0.97
44 | DVSSTEEFLELSPQKLKEVISLEK [GAN] | 4.88 ± 0.18 | 4.87 ± 0.16
45 | DYEFRVVAVNNIGRGPPSEPVLTQ [PTPRD] | 3.08 ± 0.16 | 3.04 ± 0.47
46 | DYSPYYKTIEELRDKILTATIENN [KRT13] | 3.17 ± 0.15 | 3.11 ± 0.16

Row | Sequence | protein stability index (treatment: DMSO) | protein stability index (treatment: MLN4924 1 uM, 8 h)
47 | DYVDRGYYSVETVTLLVALKVRYR [PPP2CA] | 2.74 ± 0.46 | 2.47 ± 0.6
48 | EAAEPPKTPPSSCDSTNAAIAKQA [KMT5A] | 5.42 ± 0.29 | 5.34 ± 0.13
49 | EAAKQMRSRGKVLKTKDGKLPFCA [CPOX] | 3.89 ± 0.4 | 3.68 ± 0.23
50 | EALCEEDLLLWIQKHTEVETVDLV [DENND6A] | 3.37 ± 0.25 | 3.08 ± 0.27
51 | EASAEGPRAVFVLLEERRPADSAQ [TFE3] | 3.93 ± 0.28 | 3.95 ± 0.44
52 | EASGYVDRDMFFKICESLNVPVDD [EFHC1] | 3.95 ± 0.29 | 4.17 ± 0.44
53 | ECMLLVFGIDVKEVDPTGHSFVLV [MAGEA10] | 2.82 ± 0.44 | 2.8 ± 0.66
54 | ECVVAMHQAQLISKIPHILKEMYD [EIF5] | 2.78 ± 0.38 | 2.32 ± 0.5
55 | EDLTAKRKRMKMDKTCSKTKNKSK [FAM9B] | 4.98 ± 0.43 | 5.16 ± 0.34
56 | EDSCAELGESKEHMESRMVTETEE [SDE2] | 5.7 ± 0.18 | 5.63 ± 0.3
57 | EDSSRDIREALHELLCCTNVSTKE [INTS4] | 3.75 ± 0.31 | 3.98 ± 0.25
58 | EDTTEEAQRRRMDEISDHAKVLTL [EIF5] | 5.24 ± 0.11 | 5.18 ± 0.2
59 | EEAKGLLDKVKDGGYRPAEDKIFP [ZBED1] | 4.84 ± 0.3 | 4.78 ± 0.41
60 | EEAVILLEDLERELDEPQHEMVAH [ZSCAN9] | 4.14 ± 0.6 | 4.2 ± 0.34
61 | EEDFDSEQLSVLASCLQELFKAHF [INTS3] | 2.24 ± 0.078 | 2.49 ± 0.29
62 | EELYKEIDGVATTRYSVAGLSPYS [PTPRD] | 3.14 ± 0.18 | 3.36 ± 0.22
63 | EEPNGQIQGYRVYYTMDPTQHVNN [PTPRD] | 3.18 ± 0.19 | 3.17 ± 0.34
64 | EESILERVQQHIESKLLGSNSSRM [MLH1] | 3.96 ± 0.15 | 3.92 ± 0.11
65 | EGFQRCDVARQLGKNNEFSRLVAG [PSD2] | 3.22 ± 0.25 | 3.58 ± 0.23
66 | EGGEGEKEGEGEVGGEAVEVEEVE [TRIM55] | 5.66 ± 0.35 | 5.41 ± 0.29
67 | EGHQEGLVELPASFRELLTFFCTN [SCNN1D] | 2.73 ± 0.36 | 2.71 ± 0.34
68 | EGLRRRRGREAGPPQPMVPLAVEN [PBXIP1] | 5 ± 0.49 | 4.98 ± 0.23
69 | EGPDLVPAALGSLTTAQIARSVWR [HES6] | 3.33 ± 0.39 | 3.59 ± 0.34

Row | Sequence | protein stability index (treatment: DMSO) | protein stability index (treatment: MLN4924 1 uM, 8 h)
70 | EGQHPAQLRSDVCTPGGTTIYGLH [PYCR3] | 3.8 ± 0.35 | 3.92 ± 0.39
71 | EKKKAHYRQSSFPHCSDLMPSGSE [KCNA4] | 4.2 ± 0.2 | 4.31 ± 0.17
72 | EKPYKCPECGEIFAHSSNLLRHQR [ZNF263] | 3.07 ± 0.86 | 3.76 ± 0.93
73 | EKRPLFLAPDFDRWLDESDAEMEL [HACD3] | 4.45 ± 0.11 | 4.64 ± 0.068
74 | ELERKLREVMESAVGNSSGSGQNE [FBXO28] | 4.11 ± 0.19 | 4.24 ± 0.38
75 | ELESLSAIEAELEKVAHQLQALRR [CHGA] | 4.74 ± 0.22 | 4.97 ± 0.4
76 | ELFHTIDTHNTNNLDTEELCEYFS [NECAB1] | 3.41 ± 0.28 | 3.47 ± 0.1
77 | ELGVIFYNCSCLVLDLQRIFALYS [PLD5] | 3.24 ± 0.39 | 3.29 ± 1
78 | ELKKAAYDIEVNTRRAQADLAYQL [FLOT1] | 3.2 ± 0.32 | 3.3 ± 0.32
79 | ELQRTKQEVLSLRRENSTLDVECH [SASS6] | 4.02 ± 0.33 | 3.93 ± 0.2
80 | ELVGSGYRMSLVKRRFATGMYLVS [FCHO1] | 2.46 ± 0.64 | 2.26 ± 0.43
81 | EMVRFLLEAGADQEHKTDEMHTAL [ANKRD17] | 2.88 ± 0.38 | 3.05 ± 0.42
82 | ENDGFVFKMPWKPTHPSSTHALAE [CDC25B] | 3.55 ± 0.44 | 3.36 ± 0.16
83 | ENEETGEFSIDNYPTDNTKVMIFK [MIA2] | – | 4.217 ± 0.033
84 | ENKVVEKAPVQNEAPALGGGEYQE [BEX5] | 5.41 ± 0.2 | 5.42 ± 0.32
85 | ENMDLNKIDDLMQEITEQQDIAQE [CHMP4C] | 5.6 ± 0.27 | 5.4 ± 0.24
86 | ENRRKVLYQRAPRNIHRHVILSEI [TCF25] | 2.62 ± 0.073 | 2.75 ± 0.31
87 | EPSQMLKHAVVNLINYQDDAELAT [CTNNB1] | 4.16 ± 0.32 | 4.25 ± 0.26
88 | EQALGKGCGADSKKKRPPQPPEES [PLK2] | 5.24 ± 0.41 | 5.36 ± 0.2
89 | EQCPVIDSQAPAGSLDLVPGGLTL [SPDEF] | 4.07 ± 0.23 | 4.24 ± 0.13
90 | EQEKEAQHKDQTAALPLAAEETAN [MAP2] | 5.66 ± 0.12 | 5.5 ± 0.4
